# Target: C3b (biotinylated, captured site-specifically on a streptavidin chip) (UniProt P01024)
# Assay: SPR (Biacore 3000), single-cycle kinetics, biotinylated C3b on streptavidin chip, peptide as analyte, 1:1 Langmuir fit
Substance,koff,kon,Kd
Peptide 9: Tyr(Me)-Ile-[Cys-Val-Trp(Me)-Gln-Asp-Trp-Sar-Ala-His-Arg-Cys]-mIle-NH2,0.0026 s⁻¹,2.3e+06 M⁻¹ s⁻¹,
Peptide 16: D-Trp-Ile-[Cys-Val-Trp(Me)-Gln-Asp-Trp-Sar-Ala-His-Arg-Cys]-mIle-NH2,0.0024 s⁻¹,2e+06 M⁻¹ s⁻¹,1.2 nM
Peptide 15: D-Phe-Ile-[Cys-Val-Trp(Me)-Gln-Asp-Trp-Sar-Ala-His-Arg-Cys]-mIle-NH2,0.0026 s⁻¹,2.3e+06 M⁻¹ s⁻¹,1.1 nM
Peptide 17: D-Cha-Ile-[Cys-Val-Trp(Me)-Gln-Asp-Trp-Sar-Ala-His-Arg-Cys]-mIle-NH2,0.0027 s⁻¹,1.8e+06 M⁻¹ s⁻¹,1.5 nM
Peptide 18: D-Ala-Ile-[Cys-Val-Trp(Me)-Gln-Asp-Trp-Sar-Ala-His-Arg-Cys]-mIle-NH2,0.0034 s⁻¹,1.4e+06 M⁻¹ s⁻¹,2.5 nM
